In patent publication US20120046222A1 one finds Cyclase GLP-1 Receptor EC50 data, which are given here for two substances.

The test has as its target GLP-1 receptor (UniProt P32301). Nature of the test: cell-based or functional assay.

“dAla^2,Pro^3,Leu^14,Phe^25-exendin-4 (1-28) amide (from UniProt P26349) (peptide)” showed a Cyclase GLP-1 Receptor EC50 of 0.029 nM. The same measure for “dAla^2,Pro^3-exendin-4 amide (from UniProt P26349 48-86) (peptide)”: 0.004 nM.
